From patent publication US20080058263A1 (published 2008)

Experiments:
Experiment in all cases: receptor-Fc IP
VEGFR-3-Fc = biological target: T1, VEGFR-3-Fc (UniProt P35916 25-328)
T1 construct: domain: first three Ig domains; conditioned supernatant of 293T cells; also called VEGFR-3-Fc fusion protein; not shown: Fc fragment of the pIg vector
T1 sequence (looked up): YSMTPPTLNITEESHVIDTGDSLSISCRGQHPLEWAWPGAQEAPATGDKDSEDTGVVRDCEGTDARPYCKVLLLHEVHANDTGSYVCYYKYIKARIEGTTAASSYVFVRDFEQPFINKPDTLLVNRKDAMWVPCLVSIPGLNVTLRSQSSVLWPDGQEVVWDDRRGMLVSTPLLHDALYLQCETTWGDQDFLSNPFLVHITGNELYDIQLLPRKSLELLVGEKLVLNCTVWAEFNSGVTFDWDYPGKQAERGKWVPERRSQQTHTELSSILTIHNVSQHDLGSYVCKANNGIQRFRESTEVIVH
Procedure, shortened: (§1)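 fusion protein at 400 ng/ml in an IP mix (PBS, 1.5% BSA, 0.06% Tween 20, 3 μg/ml heparin) was combined with sample supernatant at a 1:2 ratio. Bound ligand captured by immunoprecipitation with pentahistidine antibody.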

VEGFR-2-Fc = biological target: T2, VEGFR-2-Fc (UniProt P35968 20-322)
T2 construct: domain: first 3 Ig domains; conditioned supernatant of 293T cells; also called VEGFR-2-Fc fusion protein; not shown: Fc fragment of the pIg vector
T2 sequence (P35968 20-322): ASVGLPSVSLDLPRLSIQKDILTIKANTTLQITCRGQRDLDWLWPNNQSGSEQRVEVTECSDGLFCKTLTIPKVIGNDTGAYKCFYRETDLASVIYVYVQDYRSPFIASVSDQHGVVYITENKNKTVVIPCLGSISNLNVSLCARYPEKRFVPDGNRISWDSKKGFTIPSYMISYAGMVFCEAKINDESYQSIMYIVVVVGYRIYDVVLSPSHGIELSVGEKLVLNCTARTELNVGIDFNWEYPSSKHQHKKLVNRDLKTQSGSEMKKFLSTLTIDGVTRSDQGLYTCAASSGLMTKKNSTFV
Procedure, shortened: as §1

VEGFR-1-Fc = biological target: T3, VEGFR-1-Fc (UniProt P17948 27-338)
T3 construct: domain: first three Ig domains; expressed in Drosophila S2 cells, purified on Protein A sepharose; also called VEGFR-1-Fc fusion protein; not shown: Fc fragment from the Signal-pIgPlus vector
T3 sequence (P17948 27-338): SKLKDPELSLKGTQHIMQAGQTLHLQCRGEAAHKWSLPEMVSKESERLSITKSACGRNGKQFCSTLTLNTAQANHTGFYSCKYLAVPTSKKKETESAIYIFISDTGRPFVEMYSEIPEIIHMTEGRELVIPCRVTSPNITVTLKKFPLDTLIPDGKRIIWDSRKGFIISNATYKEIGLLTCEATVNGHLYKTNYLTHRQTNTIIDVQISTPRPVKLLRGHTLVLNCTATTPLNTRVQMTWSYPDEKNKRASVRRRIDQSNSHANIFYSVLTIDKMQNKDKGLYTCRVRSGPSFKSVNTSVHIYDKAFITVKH
Procedure, shortened: as §1

Measured: binding result

B1: 34-15 (ligand)
chain: GQNHHEVVKSIDNEWRKTQCMPIETLVDIFQEFGVATNTFFKPSCVPLMRCGGCCNSEGLQCVPTEESNITMQIMRITVPLSQGPKPVTISFANHTSCRCMSKLD
no binding: VEGFR-3-Fc | VEGFR-2-Fc | VEGFR-1-Fc

B2: 42-10 (ligand)
chain: AHYNTEILKFMDVYQRSYCHPREVCIDVGKEFGVATNTFFKPPCVSVYRCGGCCNDEGLECMNTSTSYLSKTLFEITVPLSQGPKPVTISFLQHNKCECRPKKD
no binding: VEGFR-3-Fc | VEGFR-2-Fc | VEGFR-1-Fc

B3: 42-12 (ligand)
chain: AHYNTEILKFMDVYQRSYCHPREVCIDVGKEFGVATNTFFKPPCVSVYRCGGCCNSEGLQCMNTSTSYLSKTLFEITVPLSQGPKPVTISFLQHNKCECRPKKD
no binding: VEGFR-3-Fc | VEGFR-2-Fc | VEGFR-1-Fc

B4: 42-1 (ligand)
chain: AHYNTEILKFMDVYQRSYCHPREVCIDVGKEFGVATNTFFKPPCVSVYRCGGCCNDEGLECVPTEESNITMQIMRIKPHQGQHIGEMSFLQHNKCECRPKKD
no binding: VEGFR-3-Fc | VEGFR-2-Fc | VEGFR-1-Fc

B5: 41-6 (ligand)
chain: AHYNTEILKFMDVYQRSYCHPREVCIDVGKEYPDEIEYIFKPSCVPLMRCGGCCNDEGLECMNTSTSYLSKTLFEIKPHQGQHIGEMSFANHTSCRCMSKLD
no binding: VEGFR-3-Fc | VEGFR-2-Fc | VEGFR-1-Fc

B6: 42-9 (ligand)
chain: AHYNTEILKFMDVYQRSYCHPREVCIDVGKEFGVATNTFFKPPCVSVYRCGGCCNDEGLECVPTEESNITMQIMRITVPLSQGPKPVTISFLQHNKCECRPKKD
no binding: VEGFR-3-Fc | VEGFR-2-Fc | VEGFR-1-Fc

B7: 42-11 (ligand)
chain: AHYNTEILKFMDVYQRSYCHPREVCIDVGKEFGVATNTFFKPPCVSVYRCGGCCNSEGLQCVPTEESNITMQIMRITVPLSQGPKPVTISFLQHNKCECRPKKD
no binding: VEGFR-3-Fc | VEGFR-2-Fc | VEGFR-1-Fc

B8: 42-15 (ligand)
chain: AHYNTEILKFMDVYQRSYCHPREVCIDVGKEFGVATNTFFKPPCVSVYRCGGCCNSEGLQCVPTEESNITMQIMRITVPLSQGPKPVTISFANHTSCRCMSKLD
no binding: VEGFR-3-Fc | VEGFR-2-Fc | VEGFR-1-Fc

B9: 42-13 (ligand)
chain: AHYNTEILKFMDVYQRSYCHPREVCIDVGKEFGVATNTFFKPPCVSVYRCGGCCNDEGLECVPTEESNITMQIMRITVPLSQGPKPVTISFANHTSCRCMSKLD
no binding: VEGFR-3-Fc | VEGFR-2-Fc | VEGFR-1-Fc

B10: 34-14 (ligand)
chain: GQNHHEVVKSIDNEWRKTQCMPIETLVDIFQEFGVATNTFFKPSCVPLMRCGGCCNDEGLECMNTSTSYLSKTLFEITVPLSQGPKPVTISFANHTSCRCMSKLD
no binding: VEGFR-3-Fc | VEGFR-2-Fc | VEGFR-1-Fc

B11: 41-9 (ligand)
chain: AHYNTEILKFMDVYQRSYCHPREVCIDVGKEYPDEIEYIFKPSCVPLMRCGGCCNDEGLECVPTEESNITMQIMRITVPLSQGPKPVTISFLQHNKCECRPKKD
no binding: VEGFR-3-Fc | VEGFR-2-Fc | VEGFR-1-Fc

B12: 43-9 (ligand)
chain: AHYNTEILKFMDVYQRSYCHPREVCIDVGKEYPDEIEYIFKPPCVSVYRCGGCCNDEGLECVPTEESNITMQIMRITVPLSQGPKPVTISFLQHNKCECRPKKD
no binding: VEGFR-3-Fc | VEGFR-2-Fc | VEGFR-1-Fc

B13: 41-11 (ligand)
chain: AHYNTEILKFMDVYQRSYCHPREVCIDVGKEYPDEIEYIFKPSCVPLMRCGGCCNSEGLQCVPTEESNITMQIMRITVPLSQGPKPVTISFLQHNKCECRPKKD
no binding: VEGFR-3-Fc | VEGFR-2-Fc | VEGFR-1-Fc

B14: 43-11 (ligand)
chain: AHYNTEILKFMDVYQRSYCHPREVCIDVGKEYPDEIEYIFKPPCVSVYRCGGCCNSEGLQCVPTEESNITMQIMRITVPLSQGPKPVTISFLQHNKCECRPKKD
no binding: VEGFR-3-Fc | VEGFR-2-Fc | VEGFR-1-Fc

B15: 21-4 (ligand)
chain: AHYNTEILKSIDNEWRKTQCMPREVCIDVGKEYPDEIEYIFKPSCVPLMRCGGCCNSEGLQCMNTSTSYLSKTLFEIKPHQGQHIGEMSFLQHNKCECRPKKD
no binding: VEGFR-3-Fc | VEGFR-2-Fc | VEGFR-1-Fc

B16: 41-14 (ligand)
chain: AHYNTEILKFMDVYQRSYCHPREVCIDVGKEYPDEIEYIFKPSCVPLMRCGGCCNDEGLECMNTSTSYLSKTLFEITVPLSQGPKPVTISFANHTSCRCMSKLD
no binding: VEGFR-3-Fc | VEGFR-2-Fc | VEGFR-1-Fc

B17: 41-16 (ligand)
chain: AHYNTEILKFMDVYQRSYCHPREVCIDVGKEYPDEIEYIFKPSCVPLMRCGGCCNSEGLQCMNTSTSYLSKTLFEITVPLSQGPKPVTISFANHTSCRCMSKLD
no binding: VEGFR-3-Fc | VEGFR-2-Fc | VEGFR-1-Fc

B18: 42-6 (ligand)
chain: AHYNTEILKFMDVYQRSYCHPREVCIDVGKEFGVATNTFFKPPCVSVYRCGGCCNDEGLECMNTSTSYLSKTLFEIKPHQGQHIGEMSFANHTSCRCMSKLD
no binding: VEGFR-3-Fc | VEGFR-2-Fc | VEGFR-1-Fc

B19: 42-8 (ligand)
chain: AHYNTEILKFMDVYQRSYCHPREVCIDVGKEFGVATNTFFKPPCVSVYRCGGCCNSEGLQCMNTSTSYLSKTLFEIKPHQGQHIGEMSFANHTSCRCMSKLD
no binding: VEGFR-3-Fc | VEGFR-2-Fc | VEGFR-1-Fc

B20: 21-3 (ligand)
chain: AHYNTEILKSIDNEWRKTQCMPREVCIDVGKEYPDEIEYIFKPSCVPLMRCGGCCNSEGLQCVPTEESNITMQIMRIKPHQGQHIGEMSFLQHNKCECRPKKD
no binding: VEGFR-3-Fc | VEGFR-2-Fc | VEGFR-1-Fc
